This note sets out measurements from article PMC9734377 (Communications Biology, 2022).

“And” between values parts separate entries of the source, which are not always exact repeats. Equal entries are not always repeated.

For series [1], the target named is T1, LdG6PD wt dimer (LdG6PD^Dimer) (Leishmania donovani, UniProt A2CIL3).
T1 construct: gene g6pdh
T1 sequence (A2CIL3 1-562): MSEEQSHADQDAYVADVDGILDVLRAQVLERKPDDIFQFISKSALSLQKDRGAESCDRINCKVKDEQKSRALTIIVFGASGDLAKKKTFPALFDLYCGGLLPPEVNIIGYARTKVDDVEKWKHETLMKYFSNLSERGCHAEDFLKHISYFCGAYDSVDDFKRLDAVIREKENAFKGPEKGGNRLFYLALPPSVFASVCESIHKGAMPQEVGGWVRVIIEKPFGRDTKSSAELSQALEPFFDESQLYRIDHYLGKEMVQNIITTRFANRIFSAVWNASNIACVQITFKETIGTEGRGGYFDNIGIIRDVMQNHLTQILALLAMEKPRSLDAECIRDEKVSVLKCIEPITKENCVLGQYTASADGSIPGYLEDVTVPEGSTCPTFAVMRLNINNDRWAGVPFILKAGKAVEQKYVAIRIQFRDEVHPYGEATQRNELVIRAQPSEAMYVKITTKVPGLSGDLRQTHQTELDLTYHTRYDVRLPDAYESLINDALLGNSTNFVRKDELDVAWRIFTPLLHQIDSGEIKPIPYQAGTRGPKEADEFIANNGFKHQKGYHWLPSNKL
The experiment in a line: dead-end inhibition, Lineweaver-Burk. The class given is biochemical. The note with it: 0-20 µM GlcN 6-P; competitive against G6P, not against NADP+; pH 7.5, 25 °C; oligomer fraction not told.

For series [2], the target named is T1, LdG6PD wt dimer (LdG6PD^Dimer). The experiment in a line: product inhibition, Lineweaver-Burk. The class given is biochemical. The note with it: 0-80 µM NADPH; competitive against NADP+ (G6P 800 µM) and against G6P (NADP+ 200 µM); pH 7.5, 25 °C; oligomer fraction not told.
Series [3] has as its system NC(=O)c1ccc[n+]([C@@H]2O[C@H](COP(=O)(O)OP(=O)(O)OC[C@H]3O[C@@H](n4cnc5c(N)ncnc54)[C@H](OP(=O)(O)O)[C@@H]3O)[C@@H](O)[C@H]2O)c1. The series can be described thus: purified protein. The note with it: 800 µM G6P, 50 mM Tris pH 7.5, 3.3 mM MgCl2, 25 °C, crystal ligand given as NADP(H), redox state open. The class given is biochemical, Leishmania donovani.
Series [4] addresses Leishmania donovani glucose 6-phosphate dehydrogenase C138S mutant (Leishmania donovani). The series can be described thus: SEC.
The target in series [5] is Leishmania donovani glucose 6-phosphate dehydrogenase truncation mutant lacking the first 59 N-terminal amino acids (Leishmania donovani). The experiment in a line: SEC.
Series [6] addresses Leishmania donovani glucose 6-phosphate dehydrogenase wild type (Leishmania donovani). The series can be described thus: SEC; HiLoad 16/60 Superdex 200, buffer A (500 mM NaCl, 50 mM Tris, pH 7.8), native conditions; for LdG6PD wt also 12-300 uM enzyme, 5 mM DTT, 2 mM H2O2, substrates (100 uM G6P, NADP+), 0.1-1 M NaCl, pH 4.8-7.8, all without change of the profile; self-association: monomers to dimer and dimers to tetramer.

The target in series [7] is Leishmania major glucose 6-phosphate dehydrogenase wild type (Leishmania major). The series is described as above.
Substrate in series [8]: NC(=O)c1ccc[n+]([C@@H]2O[C@H](COP(=O)(O)OP(=O)(O)OC[C@H]3O[C@@H](n4cnc5c(N)ncnc54)[C@H](OP(=O)(O)O)[C@@H]3O)[C@@H](O)[C@H]2O)c1
The experiment in a line: purified protein. The note with it: 800 µM G6P.

Substrate in series [9]: NC(=O)c1ccc[n+]([C@@H]2O[C@H](COP(=O)(O)OP(=O)(O)OC[C@H]3O[C@@H](n4cnc5c(N)ncnc54)[C@H](OP(=O)(O)O)[C@@H]3O)[C@@H](O)[C@H]2O)c1
The series can be described thus: purified protein. The class given is biochemical, Leishmania donovani. The note with it: 800 µM G6P, 50 mM Tris pH 7.5, 3.3 mM MgCl2, 25 °C, tetramer fraction.

For the molecule `N[C@H]1C(O)O[C@H](COP(=O)(O)O)[C@@H](O)[C@@H]1O` (stereo partly shown) [GlcN 6-P, glucosamine 6-phosphate], the “dead-end inhibition, Lineweaver-Burk” value in series [1] is recorded as “GlcN 6-P shows a competitive inhibition pattern towards G6P”.
Regarding `NC(=O)C1=CN([C@@H]2O[C@H](COP(=O)(O)OP(=O)(O)OC[C@H]3O[C@@H](n4cnc5c(N)ncnc54)[C@H](OP(=O)(O)O)[C@@H]3O)[C@@H](O)[C@H]2O)C=CC1` [NADPH], in [2], the “product inhibition, Lineweaver-Burk” value is listed as “NADPH was found to be a competitive inhibitor with respect to NADP^+ in LdG6PD”.
As to LdG6PD^60–562 (Leishmania donovani), in series [3], the Km was 14.3 ± 2.2 µM, the Vmax came out at 233 µmol/min/mg, the catalytic constant (kcat) worked out at 234 ± 18.8 s⁻¹ and the kcat/Km turned out to be 1.7e+07 ± 2.5e+06 M⁻¹ s⁻¹.
As to “Leishmania donovani glucose 6-phosphate dehydrogenase C138S mutant (enzyme)”, the stoichiometry N in series [4] is 2 and 4.
Consider “Leishmania donovani glucose 6-phosphate dehydrogenase truncation mutant lacking the first 59 N-terminal amino acids (domain or fragment)”, for which the stoichiometry N in [5] turned out to be 2.
As for “Leishmania donovani glucose 6-phosphate dehydrogenase wild type (enzyme)”, the stoichiometry N in series [6] was 4 and 2.
On to “Leishmania major glucose 6-phosphate dehydrogenase wild type (enzyme)”, for which, in series [7], the stoichiometry N was 2 and 4.

B1: LdG6PD wt dimer (LdG6PD^Dimer) (Leishmania donovani) (protein)
chain: MSEEQSHADQDAYVADVDGILDVLRAQVLERKPDDIFQFISKSALSLQKDRGAESCDRINCKVKDEQKSRALTIIVFGASGDLAKKKTFPALFDLYCGGLLPPEVNIIGYARTKVDDVEKWKHETLMKYFSNLSERGCHAEDFLKHISYFCGAYDSVDDFKRLDAVIREKENAFKGPEKGGNRLFYLALPPSVFASVCESIHKGAMPQEVGGWVRVIIEKPFGRDTKSSAELSQALEPFFDESQLYRIDHYLGKEMVQNIITTRFANRIFSAVWNASNIACVQITFKETIGTEGRGGYFDNIGIIRDVMQNHLTQILALLAMEKPRSLDAECIRDEKVSVLKCIEPITKENCVLGQYTASADGSIPGYLEDVTVPEGSTCPTFAVMRLNINNDRWAGVPFILKAGKAVEQKYVAIRIQFRDEVHPYGEATQRNELVIRAQPSEAMYVKITTKVPGLSGDLRQTHQTELDLTYHTRYDVRLPDAYESLINDALLGNSTNFVRKDELDVAWRIFTPLLHQIDSGEIKPIPYQAGTRGPKEADEFIANNGFKHQKGYHWLPSNKL
For B1, the Km in the series “purified protein [8]” (50 mM Tris pH 7.5, 3.3 mM MgCl2, 0.005% Tween, 1 mg/mL BSA, 25 °C, dimer fraction, crystal ligand given as NADP(H), redox state open) is reported as 15.9 ± 1.1 µM.

B2: LdG6PD wt tetramer (LdG6PD^Tetramer) (Leishmania donovani) (protein)
chain: MSEEQSHADQDAYVADVDGILDVLRAQVLERKPDDIFQFISKSALSLQKDRGAESCDRINCKVKDEQKSRALTIIVFGASGDLAKKKTFPALFDLYCGGLLPPEVNIIGYARTKVDDVEKWKHETLMKYFSNLSERGCHAEDFLKHISYFCGAYDSVDDFKRLDAVIREKENAFKGPEKGGNRLFYLALPPSVFASVCESIHKGAMPQEVGGWVRVIIEKPFGRDTKSSAELSQALEPFFDESQLYRIDHYLGKEMVQNIITTRFANRIFSAVWNASNIACVQITFKETIGTEGRGGYFDNIGIIRDVMQNHLTQILALLAMEKPRSLDAECIRDEKVSVLKCIEPITKENCVLGQYTASADGSIPGYLEDVTVPEGSTCPTFAVMRLNINNDRWAGVPFILKAGKAVEQKYVAIRIQFRDEVHPYGEATQRNELVIRAQPSEAMYVKITTKVPGLSGDLRQTHQTELDLTYHTRYDVRLPDAYESLINDALLGNSTNFVRKDELDVAWRIFTPLLHQIDSGEIKPIPYQAGTRGPKEADEFIANNGFKHQKGYHWLPSNKL
Consider B2, for which, in the series “purified protein [9]”, the Km came to 14.2 ± 0.9 µM, the Vmax is 185 µmol/min/mg, the kcat stood at 204 ± 13.6 s⁻¹ and the kcat/Km was 1.49e+07 ± 3e+06 M⁻¹ s⁻¹.

B3: LmG6PD wt (Leishmania major) (protein)
chain: MSEEQSHADQDAYVADVDGILDVLRAEVLERKPDDVFQFISQSALSLQKDRGAESCDRINCKVTDEQKSRALTIIVFGASGDLAKKKTFPALFDLYCGGLLPPEVNVIGYARTKVDDAERWKRETLMTYFSNVPERACHAEDFLKHISYFCGSYDKVDDFKRLDAVIREKENAFKGPEKGGNRLFYLALPPSVFASVCESIHKGAMPQEVGGWARVIIEKPFGRDTKSSAELSRALEPFFDESQLYRIDHYLGKEMVQNIITTRFANRIFSAVWNSNNIACVQITFKETIGTEGRGGYFDGIGIIRDVMQNHLTQILALLAMEKPRSLDAECIRDEKVSVLKCIEPITKENCVLGQYTASADGSIPGYQEDVTVPEGSTCPTFAVMRLNINNDRWAGVPFILKAGKAVEQKYVAIRIQFKDEVHPYGEATQRNELVIRAQPSEAMYVKITTKVPGLSGDLRQTHQTELDLTYHTRYDVRLPDAYESLINDALLGNSTNFVRKDELDVAWRIFTPLLHQIDCGEIKPIPYQAGTRGPKEADEFITNNGFKHQKGYQWLPSNKL
On to B3, for which the Km in “purified protein [8]” (50 mM Tris pH 7.5, 3.3 mM MgCl2, 25 °C) is on record as 11.4 ± 1.5 µM.
